Among the data in article PMC6238593, “Beetle luciferases with naturally red- and blue-shifted emission” (Life Science Alliance, 2018) are bioluminescence emission spectra, Tm and stoichiometry N values, retold here.

Positions count from the first letter of the chain named.

Test [1] deals with T1, GBAv (blue-shifted green-emitting luciferase from A. vivianii) (Amydetes, UniProt A0A3F2YLV6).
T1 construct: full-length synthetic codon-optimised gene in pET28a+, E. coli BL21-CodonPlus-RIL, Ni and size-exclusion purified; monomer; PDB codes 6AAA, 6ABH, 6AC3 printed without assignment to protein
T1 sequence (A0A3F2YLV6 1-547): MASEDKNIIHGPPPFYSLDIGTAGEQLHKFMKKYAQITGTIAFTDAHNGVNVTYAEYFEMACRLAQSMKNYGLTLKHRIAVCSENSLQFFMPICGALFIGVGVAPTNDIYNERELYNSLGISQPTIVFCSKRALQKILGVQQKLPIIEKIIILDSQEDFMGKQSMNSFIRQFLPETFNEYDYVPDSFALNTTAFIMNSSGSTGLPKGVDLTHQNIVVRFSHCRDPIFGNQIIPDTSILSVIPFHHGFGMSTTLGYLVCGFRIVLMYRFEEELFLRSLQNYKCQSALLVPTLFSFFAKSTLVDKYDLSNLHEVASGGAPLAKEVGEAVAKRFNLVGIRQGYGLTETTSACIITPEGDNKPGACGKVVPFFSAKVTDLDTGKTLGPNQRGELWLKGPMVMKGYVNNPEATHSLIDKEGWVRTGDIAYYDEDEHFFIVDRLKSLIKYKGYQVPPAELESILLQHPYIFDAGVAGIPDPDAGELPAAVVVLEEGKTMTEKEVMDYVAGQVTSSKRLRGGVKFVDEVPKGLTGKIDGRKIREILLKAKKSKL
Nature of the test: bioluminescence emission spectra. In kind it is biochemical. The conditions noted are these: pH 7.0 to 8.0.

For test [2], the target named is T2, REPh (red-emitting luciferase from P. hirtus) (Phrixothrix hirtus, UniProt Q9U4U7, K522A).
T2 construct: full-length synthetic codon-optimised gene in pET28-MHL, E. coli BL21-CodonPlus-RIL, Ni and size-exclusion purified; about 61 kDa monomer, tetramer in solution; PDB codes 6AAA, 6ABH, 6AC3 printed without assignment to protein
T2 sequence (Q9U4U7 1-546 K522A): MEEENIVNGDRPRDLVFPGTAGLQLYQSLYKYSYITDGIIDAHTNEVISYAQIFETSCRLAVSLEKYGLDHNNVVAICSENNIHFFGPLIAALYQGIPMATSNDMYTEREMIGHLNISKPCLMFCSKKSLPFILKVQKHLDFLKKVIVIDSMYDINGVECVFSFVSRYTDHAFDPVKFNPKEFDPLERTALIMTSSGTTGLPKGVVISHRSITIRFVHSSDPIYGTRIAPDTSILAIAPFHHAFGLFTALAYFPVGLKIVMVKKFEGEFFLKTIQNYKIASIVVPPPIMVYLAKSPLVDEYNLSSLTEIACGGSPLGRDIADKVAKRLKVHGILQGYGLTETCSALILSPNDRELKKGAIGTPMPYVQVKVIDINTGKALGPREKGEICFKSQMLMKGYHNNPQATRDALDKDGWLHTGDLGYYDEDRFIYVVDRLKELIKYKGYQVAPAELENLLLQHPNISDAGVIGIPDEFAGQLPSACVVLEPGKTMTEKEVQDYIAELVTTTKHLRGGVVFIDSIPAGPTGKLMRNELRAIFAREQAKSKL
Nature of the test: differential scanning calorimetry. The format is binding. Conditions: Hepes 20 mM pH 7.8, MgCl2 10 mM; ligand 5 uM (methods) or 5 mM (Figure S10 legend). (In general: In DSC, transitions show as peaks or steps in heat flow.)

Test [3] addresses T3, REPh (red-emitting luciferase from P. hirtus) (Phrixothrix hirtus, UniProt Q9U4U7).
T3 construct: full-length synthetic codon-optimised gene in pET28-MHL, E. coli BL21-CodonPlus-RIL, Ni and size-exclusion purified; about 61 kDa monomer, tetramer in solution; PDB codes 6AAA, 6ABH, 6AC3 printed without assignment to protein
T3 sequence (Q9U4U7 1-546): T2 sequence (Q9U4U7 1-546 K522A) with A522K
Description: differential scanning calorimetry. The format is binding. The conditions noted are these: 35 °C without ligand, Hepes 20 mM pH 7.8, MgCl2 10 mM, ligand 5 uM (methods) or 5 mM (Figure S10 legend).

In test [4] the target is red-emitting luciferase from Phrixothrix hirtus, double mutant Y153A/F162A (Phrixothrix hirtus). Description: SEC; Superdex 200 5/150 GL; MWs estimated with a gel filtration calibration kit.
Test [5] concerns the target red-emitting luciferase from Phrixothrix hirtus, mutant F162A (Phrixothrix hirtus). Described as above.
Test [6] deals with red-emitting luciferase from Phrixothrix hirtus, mutant Y153A (Phrixothrix hirtus). The test is described as above.
In test [7] the target is red-emitting luciferase from the glow-worm Phrixothrix hirtus, wild type (Phrixothrix hirtus). Described as above.
The target is the same in test [8]. Description: crystal structure; REPh free enzyme, P1 crystal form, 3.05 Å; only the N-terminal domains seen; PEG 3350 19-21%, bis-tris propane 100 mM pH 6.0, ammonium sulfate 200 mM.
Test [9] has the same target. Description: crystal structure; REPh free enzyme, P3(1)21 crystal form, 3.60 Å; PEG 3350 19-21%, bis-tris propane 100 mM pH 6.0, ammonium sulfate 200 mM.

As a reminder, the stoichiometry N is a count of units in the complex or per binding partner.

For the molecule `Nc1ncnc2c1ncn2[C@@H]1O[C@H](COP(=O)(O)OP(=O)(O)OP(=O)(O)O)[C@@H](O)[C@H]1O` [ATP], the bioluminescence emission spectra entry in test [1] (co-substrate luciferin) was “The emission of WT GBAv was pH-dependent”. Further, the Tm result in test [2] was “signal was detectable only after the addition of substrate, luciferin or ATP”; in test [3] (two transitions with ligand, in °C (unit assumed)) it was 36 and 41.
As to `O=C(O)[C@H]1CSC(c2nc3ccc(O)cc3s2)=N1` [firefly luciferin], in test [1] (co-substrate ATP), the bioluminescence emission spectra entry is on record as “The emission of WT GBAv was pH-dependent”. Also, the Tm in test [3] (Tm with ligand) came out at 41 °C.
Consider “red-emitting luciferase from Phrixothrix hirtus, double mutant Y153A/F162A (enzyme)”, for which the stoichiometry N in [4] is 2.
Regarding “red-emitting luciferase from Phrixothrix hirtus, mutant F162A (enzyme)”, the stoichiometry N in test [5] was 2.
As to “red-emitting luciferase from Phrixothrix hirtus, mutant Y153A (enzyme)”, in test [6], the stoichiometry N is 2.
For “red-emitting luciferase from the glow-worm Phrixothrix hirtus, wild type (enzyme)”, the stoichiometry N in test [7] was 4; in [8], 8; in [9] it was 4.
